Assay: soluble on expression in E. coli; label from the status in PepcDB or PDB records

Sequence | soluble on expression in E. coli
MSEKRVQPLARDAMAYVLAGGRGSRLKELTDRRAKPAVYFGGKARIIDFALSNALNSGIRRIGVATQYKAHSLIRHLQRGWDFFRPERNESFDILPASQRVSETQWYEGTADAVYQNIDIIEPYAPEYMVILAGDHIYKMDYEYMLQQHVDSGADVTIGCLEVPRMEATGFGVMHVNEKDEIIDFIEKPADPPGIPGNEGFALASMGIYVFHTKFLMEAVRRDAADPTSSRDFGKDIIPYIVEHGKAVAHRFADSCVRSDFEHEPYWRDVGTIDAYWQANIDLTDVVPDLDIYDKSWPIWTYAEITPPAKFVHDDEDRRGSAVSSVVSGDCIISGAALNRSLLFTGVRANSYSRLENAVVLPSVKIGRHAQLSNVVIDHGVVIPEGLIVGEDPELDAKRFRRTESGICLITQSMIDKLDL | soluble
MSEKTNPNLTLHDVTDKLEGDDEKYATALKTCGEVFAEVEAIFNDENYLSHAGWFKDESNNEGDVVYAKDTPHGRMVTISTELPMPVEDVMKETWNGMEALPEWNQNINFAARIAAPTSNFDIVTYGNNDVLVVSGREFVSARIWRKVGDGFILASRSVTVPSFKSKHKGKVRAHLHLAGARFRPNPENPETTLTDVVMLADLKGYLPKMIVNQVIGRIMIMDTVTNRRHFQNLKAKRTNN | not soluble
MSELDTVIKNAEEIAIQEDEEIIEEVIEEEQVPWLGPTDVMEGQGEYYQSEELLEHEMVEYEDAEPYQSFLPIRDGAPYFSLNLPDLLSKAHQITQDTGVIVRLTSCFNKKCQRQVACGGCLYTIKDYVSDIQWNNWTCINPQCFGEIRTTPDFRDIREVHGHTANCPPPDEIQIAVRIAVYDTRLLAEFTDTPLENLYFGAVERLKIDCADGFVLFPPFEVVKSTLEDHRHNKIYRKRFEMQNLRDKQRKMNMTPDEVVFAENTSGMIRFRRTKPFPMSICNVCGEEISSTNLPSQDQLISHYMYTHGRRMTIERYEFKDVNTFEQYLRELNSMGKYKFKRMGLADENMFYLCSHDDRLNKTGIGRATRLQQQSCHCTAFIRVFDWRVRWKLNNLNYEQITKKSDIYTFNAVCKVEDMCMSLLNRLQDCQNPRVALGYREKIAAIVRKSTTDPGLCDEKSVEEIEKSWVLQKPIRGRPRKRVKLENGQEDGGGDLDEDDDVVMDDYEDGEENGDKKITASRRSESPKPASSSSEPPPPSTTEEASTSLADELPRVTREESTSSNTSGHVAGDVTTRSGRARKPPARLLDD | not soluble
MSELEKTFGIKVSPGAIYPILSSLRKSGLIEVAREGKREKKLYRITEKGEEYLKKHEDEVEEALEIANKLKEFSELGGREVAQVLREVIENIDKLSEEQKTALAREFSEFVKRIKIILLGGE | soluble
MSELHYLYGKPTGTADLRTVNSDFIVKEILPFSPSGEGEHHLVHIRKDGLNTVQVAEMLAKFAKVHPKEVTYAGQKDKNAITEQWFGIRIPGKETPAWIELNSDRLTVLSSSRHSKKLRIGALLGNRFILTLRNVTNVEDIISRIEKVSQIGVPNYFGEQRFGHDGKNLVLGRQMLAGKKVKDRNKRSMYLSAVRSHLFNTVVSYRLTHYGTRPLAGDCVMLAGSKSFFVTPEWDLVVLKRLIEKDIQLSAPLWGRGKMLPQGEAAEVETQAMADLTEDCYGLEHAGLEQERRPLLLEPQGLKHEQTSDGLVLEFILPAGCFATSLLRELVDYQDVKELQWQTTLTAETNVVTESNTAAANVSDNGESASLEHHHHHH | soluble
MSENKNVQDTHISEQMKALHGALIRVVSALNRPRNDEKLIAEAGIQLDRALFSILISIERLGPIGVVELAERAGRDYTTVSRQVAKLEKLGLIIRQHNAIDRRIREAVISRTGKAMTERIDAAREQMGNVVFKDWPQDELDVFVRLMQKFADAMDSDASMPE | not soluble
MSENPVVSDKKPGPSKDSSFFSDLYDNLNQNPYFNAGAGLAGIGIAMSFLRRTAQISNTYFRRRFMINLQINNEDAAYPWLLDFINNRSATQTRNLSANTVVHQAESGKTELSISFLPGHGTHFFVHDYRWIKVERQREKQVIQRDGIRTPFETVTLTTLGSDVKFFKRMLEQSAKEAIDNAETGLVIYQAVGPQWIRFGVPRKKRDIESVILDGRICEELVEDFQEFISSATWYADRGVPYRRGYLFYGPPGTGKSSFISALASHFGYSVCLLSLSERTLDDDRLNHLLNTAPPNSVVILEDIDAAFVSREDPMSNHPAYQGLSRVTFSGLLNALDGVACAEERLTFMTTNYVERLDPALIRPGRVDRKQYFGNATDGMLSKMFSRFYRQPSDSVLADEFVKRVSEHKTELSPAMIQGHFLMYKQDPRAALDNIKNMFKTV | not soluble
MSEPIRVLVTGAAGQIAYSLLYSIGNGSVFGKDQPIILVLLDITPMMGVLDGVLMELQDCALPLLKDVIATDKEDVAFKDLDVAILVGSMPRREGMERKDLLKANVKIFKSQGAALDKYAKKSVKVIVVGNPANTNCLTASKSAPSIPKENFSCLTRLDHNRAKAQIALKLGVTANDVKNVIIWGNHSSTQYPDVNHAKVKLQGKEVGVYEALKDDSWLKGEFVTTVQQRGAAVIKARKLSSAMSAAKAICDHVRDIWFGTPEGEFVSMGVISDGNSYGVPDDLLYSFPVVIKNKTWKFVEGLPINDFSREKMDLTAKELTEEKESAFEFLSSA | soluble
MSEPMSERERWQLELDKLQRGLQGDPFAFLGPQRDPGGEGGVLRAYLPGAQRVELLDEDGATLAELEQSDPGSGLFQRHLERLPPRYRLRVHWPDGVQESEDPYAFGPLLGELDLYLFAEGNHRQLASCLGAQLTRHEGVEGVRFAVWAPNAVRVSVVGDFNGWDGRRHPMRRRYPSGVWELFVPRLGEGELYKYELQGHDGLLPLKADPLALACETPPGTASKTCAALRHEWRDQDWLARRAERQGYAAP | not soluble
MSETAKRLLRRVEAIDAAAAENRARAEQYRQMTEKLAAVTGTATSPDGVVTVVAGPDGSVKEVTFSEQVRKADPAALSASVVHTIAQARVNATREQAEIMRRNLDDTHLLDQVLAEDARLFGDKQPEDPGPPPPAAVPTGGTPAGRPRTQPARQAYNDDDSFEDFQVLRRS | not soluble
MSETKNITVPEINKTVEQMLIKGRWLDALDFWINNTDSLVLIRWLAQFISQLSPEEDSLLLQSIVRWKEGDDEQRWEIFRHAESVGFSTQTGALGVSLFVSQGSLSPAPYDPVYAPSCSEKKIIYGILMHQSNKYYDAPDEGVFFLFRHWCNSHS | not soluble
MSETPEYGVLSWWDYGNWIVYVGKRPAVSNNFQTGVEDSANFLLTDSEEEAKTIVEKLKVKYVMTDTLMAEGKFSSITSLAGKEIGEYYEVETVKGDTGLRTVATPKQALLQTQVYKLHKLDGTSLGHFRLVHESAVNSTDDGNSKENTVKVFEYVKGATLSGTLEHHHHHH | not soluble
MSFEEFTPLNEKSLVDYIKSTPALSSKIGADKSDDDLVIKEVGDGNLNFVFIVVGSSGSLVIKQALPYIRCIGESWPMTKERAYFEATTLRKHGNLSPDHVPEVYHFDRTMALIGMRYLEPPHIILRKGLIAGIEYPFLADHMSDYMAKTLFFTSLLYHDTTEHRRAVTEFCGNVELCRLTEQVVFSDPYRVSTFNRWTSPYLDDDAKAVREDSALKLEIAELKSMFCERAQALIHGDLHTGSVMVTQDSTQVIDPEFSFYGPMGFDIGAYLGNLILAFFAQDGHATQENDRKEYKQWILRTIEQTWNLFNKRFIALWDQNKDGPGEAYLADIYNNTEVLKFVQENYMRNLLHDSLGFGAAKMIRRIVGVAHVEDFESIEEDKRRAICERSALEFAKMLLKERRKFKSIGEVVSAIQQQS | soluble
MSFFTKEQQPKENCPPITVEKARQLFEFNTNHLSLSDYHHQTVLKTSKQLVAQHLMPNATDNLSQHFLMNYKANNNYLGFQASIVDFFTDSAVANFSSSYVYESQEKIIRLPKPTKISTALSTCIIKRRSHRQFSDRQMPLQDLSNILYYACGVSSQASIRDGASDKITLRNCASGGGLYPIHLVFYARNISKLIDGFYEYLPYQHALRCYRHSSEENVRDFAEYGAINAENCNIIIIYVYHYMKNTRKYGNQATAYAFIESGEIAQNIQLTATALTYGSIDIGGYNKEYLQELLDLDGLGEHVIHMTLVGTKESQ | not soluble
MSFITAFRERVFIASGDLIRTFRISEETELKNFISWSKINPERIQKPSFDIEKELKAVEKRVILCLAHSNVLTTHGRRLVAVGTNEKQIHVFEYFVNDKGDIVTAEHIVTSVVPKAPTAIVFDKEDAYVVVGDRAGDVHRFSVLNGSAIEMAGAISMILDVAFSPDGKRLLMADRDEKVRALRYPATSVIDSFFLGHTEYVKTLAVQDNDSLWSSGGDKNLYNWSIAKCSAPRRTLDLSQFDAPIRKISINLQHKKIAVIFEKIETVVIVDLNQESLQTTSVSIVGESQCLDIASTKDYFAVLGRSTVHLIDLNNMEQKFVPIDEELTITLTSTNDAIDNLFKNVTHNNQQEYEKRKADKFEQIEKKKRRLNEDINGDDGEGPGPSNS | not soluble
MSFRIGRRCFSKQSYDAIIIGGGHNGLTAAAYLTKAGKKVCVLERRHVVGGAAVTEEIVPGFRFSRASYLLSLLRPVVMQELNLKKFGLRYHIRNPNSFTPIRNTHESLLLGMDMAENQKEIAKFSQRDAGNYPKYEHFISEIVHSFEQLMDYEPLDLQKPIHKLLPHLYLLFKTVQPLGLRNAVDFYELMTAPISKIMNKWFESDVLKATLGTDGVIGLAASPMDPGTGYVLLHHVIGGLDEHKGAWGYVYGGMGAVSNAIAECAKSHGAEIYTEQDVQEVLLDGNVAKGVRLSNGKELHSKIVMSNATPHVTFNHLVKKESLPEEFHRNINQIDYTSPVTKINVAVKELPNFLAKPNQGSEPMPHHQTTIHMNCENMQVVHDAVMDYKNGRYSRRPVIEMTIPSSVDRTIVDSADGHVVLLFTQYTPFSPKDGEWTEEKKTEYAKHVFSEIDAYAPNFSSSVIGYDILTPPDIQNTFGITGGNIFHGSMSLDQLYVSRPISKWSNYSTPIESLYLCGSGAHPGGGVTGAPGRLSALHALKHF | not soluble
MSFSDHFSAVAASYAKARPRYPQRWFRYLARIVPDRQRVWDCATGNGQAAIALAEYFSEVIGSDASAAQVRQARSHPRVQYLVFPAEATPLAPASLDLITVAQAAHWFDLPQFYIEAQRLLRPGGVIALWGYGLGSLNPAIDHVFNHFYRDWLDPYWPPERQWVEQAYEGLSFPFEPLPTPTFSMQCDWTLFDLLAYLRTWSGVQQFQRQRGFDPVWAIAPELQRVWGDPQRYRRITWPLFAKVGRWQPLEHHHHHH | soluble
MSFVAYEELIKEGDTAILSLGHGAMVAVRVQRGAQTQTRHGVLRHSVDLIGRPFGSKVTCGRGGWVYVLHPTPELWTLNLPHRTQILYSTDIALITMMLELRPGSVVCESGTGSGSVSHAIIRTIAPTGHLHTVEFHQQRAEKAREEFQEHRVGRWVTVRTQDVCRSGFGVSHVADAVFLDIPSPWEAVGHAWDALKVEGGRFCSFSPCIEQVQRTCQALAARGFSELSTLEVLPQVYNVRTVSLPPPDLGTGTDGPAGSDTSPFRSGTPMKEAVGHTGYLTFATKTPG | soluble
MSGDYRITLEELRYISVFHSITGVTAYRCIVDEENNRLIFLVSEGEAGRAIGRGGRLIKLLREALGKNIEVVEYSSDLERIVKNLFPGVKIESINVRERNGVKQVVIKVSEDDKGAAIGKGGKNVKRARLVLSKLFGVEKVVIR | soluble
MSGIKSLELLLQSMSPELMAGDYVFCTVNGALSDYLSLEPIATFREPEGLTLVLEAEKAQQAGLESSALFSLITLTVHSSLEAVGLTAAFATKLAEHGISANVIAGYYHDHIFVQKEKAQQALQALGEFAQA | soluble

Reference: the DeepSol protein solubility set
